The results in this text go back to patent US20260132200A1 (Regeneron, published 2026).

The target of assay [1] is T1, human CD3 expressed on cells (Jurkat, a CD3+ human T-cell line; human T cells) (human, UniProt P07766 23-126; P04234 22-100).
T1 chain 1: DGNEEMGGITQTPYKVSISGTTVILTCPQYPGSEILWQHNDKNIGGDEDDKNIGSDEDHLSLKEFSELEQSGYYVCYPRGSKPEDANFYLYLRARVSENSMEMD
T1 chain 2: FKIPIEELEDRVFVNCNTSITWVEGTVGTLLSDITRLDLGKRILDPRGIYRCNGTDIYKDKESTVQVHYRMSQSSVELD
Description: cell-based or functional assay.

The target in assay [2] is T2, human CD20 expressed on Raji cells (CD3-, CD20+ human B-cell line) (human, UniProt P11836 1-297).
T2 sequence: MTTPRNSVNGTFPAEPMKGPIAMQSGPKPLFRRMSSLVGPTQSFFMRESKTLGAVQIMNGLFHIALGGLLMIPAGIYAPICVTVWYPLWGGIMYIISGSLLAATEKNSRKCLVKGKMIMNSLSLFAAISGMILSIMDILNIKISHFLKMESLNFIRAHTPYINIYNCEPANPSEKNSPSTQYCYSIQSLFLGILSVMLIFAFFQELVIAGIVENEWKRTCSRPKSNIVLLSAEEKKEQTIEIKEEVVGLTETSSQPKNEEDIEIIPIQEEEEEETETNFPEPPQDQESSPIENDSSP
Put plainly: cell-based or functional assay.

B1: H1H5778P (antibody, human IgG1, V domains shown)
VH: EVQLVESGGGLVQPGRSLRLSCVASGFTFADFTMHWVRQAPGKGLEWVSGISWNSNSIDYADSVKGRFTISRDNAKKSLFLQMSSLRAEDTALYYCVKDRSGYSRFYYGMDVWGQGTTVTVSS
VL: EIVMTQSPATLSVSPGERAILSCRASQNINSNLAWYQQKPGQAPRLLIYGASTRATGVPARFSGSGSGTEFTLTIRSLQSEDFAVYYCQQYYNWPITFGHGTRLEIK
As for B1, the “U937 Cytotoxicity Human T-cells [M] (EC50)” value in assay [1] came to 3.41e-13 M.

B2: H1H5793B (antibody, human IgG1, V domains shown)
VH: QVQLVQSGTEVKKPGASMKVSCKASGYTFTGYYIHWVRQAPGQGLEWMGWINPNSDVTKYAQKFQGRVTLTRDTSISAAYIDLSRLRSDDTAIYYCARMGDGAVFDYWGQGTLVTVSS
VL: DIQLTQSPSSLSASVGDRVTITCRASQRISSYLNWYQQKPGKAPKVLISVASSLQSGVPSRFSGSGFGTDFTLTISSLQPEDSASYYCQQSYNTPLTFGGGTKLEIKR
Regarding B2, the “U937 Cytotoxicity Human T-cells [M] (EC50)” value in assay [1] worked out at 8.85e-11 M.

B3: H1H5797B (antibody, human IgG1, V domains shown)
VH: QVQLVQSGTEVKKPGASVKVSCKASGYTFTGYYMHWVRQAPGQGLEWMGWINPNSDVTNYAQKFQGRVTLTRDTSISTAYIDLSRLRSDDTAIYYCARMGDGAVFDYWGQGTLVTVSS
VL: DIQMTQSPSSLSASVGDRVTITCRASQRISSYLNWYQQKPGKAPKVLISVASSLQSGVPSRFSGSGSGTDFTLTISSLQPEDFASYYCQQSYNTPLTFGGGTKVEIKR
On to B3, for which, in assay [1], the “U937 Cytotoxicity Human T-cells [M] (EC50)” value turned out to be 5.76e-10 M.

B4: H1H5758B (antibody, human IgG1, V domains shown)
VH: EVQLVESGGGVVQPGRSLRLSCAASGFTFSSYGMHWVRQAPGKGLEWVTVILHDGSNRYYADSVKGRFTISRDNSKNTLYLQMNILRAEDTAVYYCTKGAMVRGVPYNHYYGMDVWGQGTTVTVSS
VL: DIVMTQSPSSLSASVGDRVTITCRASQGIRNDLGWYQQKPGKAPKRLIYAASNLQSGVPSRFSGSGSGTEFTLTISSLQPEDFATYYCLQHNSYPYTFGQGTKLEIKR
For B4, the “U937 Cytotoxicity Human T-cells [M] (EC50)” value in assay [1] was 8.86e-08 M.

B5: BS3/20-007 (bispecific antibody, V domains shown)
VH 1: EVQLVESGGGLVQPGRSLRLSCVASGFTFNDYAMHWVRQAPGKGLEWVSVISWNSDSIGYADSVKGRFTISRDNAKNSLYLQMHSLRAEDTALYYCAKDNHYGSGSYYYYQYGMDVWGQGTTVTVSS
VH 2: DVQLVQSGAEVKKPGASVKVSCKASGYTFTRYTMHWVRQAPGQGLEWIGYINPSRGYTNYADSVKGRFTITTDKSTSTAYMELSSLRSEDTATYYCARYYDDHYCLDYWGQGTTVTVSS
VL: DIVLTQSPATLSLSPGERATLSCRASQSVSYMNWYQQKPGKAPKRWIYDTSKVASGVPARFSGSGSGTDYSLTINSLEAEDAATYYCQQWSSNPLTFGGGTKVEIK
As to B5, in assay [2], the “CDC EC50, Raji” value stood at 2.62 nM; the “CDC EC50, Raji SCID1” value was determined as 101 nM; the “CDC EC50, Raji SCID2” value is 8.83 nM; the “CDC EC50, Raji SCID3” value is 37.7 nM. In assay [2], the “CDC EC50, Raji SCID4” value turned out to be 140 nM; the “T-Cell Mediated Cytotoxicity EC50, Raji” value came out at 0.00166 nM; the “T-Cell Mediated Cytotoxicity EC50, Raji SCID1” value amounted to 0.00111 nM; the “T-Cell Mediated Cytotoxicity EC50, Raji SCID2” value was 0.000652 nM. Moreover, in assay [2], the “T-Cell Mediated Cytotoxicity EC50, Raji SCID3” value worked out at 0.000293 nM and the “T-Cell Mediated Cytotoxicity EC50, Raji SCID4” value was 0.00153 nM.

B6: H1H5772S (antibody, human IgG1, V domains shown)
VH: QVQLVESGGGLVQPGRSLRLSCAASGFSFDDYAMHWVRQAPGQGLEWVSGISWNGGSRDYADSVKGRFTISRDNARNSLFLQMNSLFTEDTALYYCAKDKSGYGSYFYGMDVWGQGTTVTVSS
VL: EIVLTQSPGILSLSPGDRATLSCRASQSIRNIYLAWYQQKPGQAPRLLIHGASTRATGIPDRFSGSGSGTDFTLTISRLEPEDFAVYYCQQRVSSPYTFGQGTKLEIK
Turning to B6, the “U937 Cytotoxicity Human T-cells [M] (EC50)” value in assay [1] was 6.89e-13 M.

B7: H1H5782P (antibody, human IgG1, V domains shown)
VH: EVQLVESGGGLVQPGRSLRLSCAASGFTFDDYAMHWVRQAPGKGLEWVSGISWNSGSKDYADSVKGRFTISRDNTRNSLFLQMNSLRTEDTALYYCAKDKSGYGSFYYGMDVWGQGTTVTVSS
VL: not shown
Turning to B7, the “U937 Cytotoxicity Human T-cells [M] (EC50)” value in assay [1] came to 5.18e-12 M.

B8: H1H5781P (antibody, human IgG1, V domains shown)
VH: EVQLVESGGGLVQPGRSLRLSCAASGFTFDDFTMHWVRQAPGKGLEWVSDISWNSGSIDYADSVKGRFTISRDNARNSLFLQMSSLRTEDTASYYCIKDKSGYGSYNYGLDVWGQGTTVTVSS
VL: EIVLTQSPGTLSLSPGDRATLSCRASQSVSSIYLAWYQQKPGQAPRLLIHGASTRATGIPDRFSGSGSGTDFTLTISRLEPEDFALYYCHQRVSSPYTFGQGTKLEIK
Consider B8, for which, in assay [1], the “U937 Cytotoxicity Human T-cells [M] (EC50)” value was 1.83e-12 M.

B9: H1H5780P (antibody, human IgG1, V domains shown)
VH: EVQLVESGGGLVQPGRSLRLSCAASGFTFDDYAMHWVRQAPGKGLEWVSGISWNGGSKDYADSVKGRFTISRDNTRNSLSLQMNSLRIEDTALYYCAKDKSGYGSFYYGLDVWGQGTTVTVSS
VL: EIVLTQSPGTLSLSPGDRATLSCRASQSIRSIYLAWYQQKPGQAPRLLIHGASTRATGIPDRFSGSGSGTDFTLTISRLEPEDFAVYYCQQRVSSPYTFGQGTKLEIK
As to B9, the “U937 Cytotoxicity Human T-cells [M] (EC50)” value in assay [1] worked out at 4.03e-12 M.

B10: H1H5786B (antibody, human IgG1, V domains shown)
VH: QVQLVESGAEVKKPGASVKVSCKTSGYTFTGYYMHWIRQAPGQGLEWMGWINPKSGGTNYAQKFQGRVTMTRDTSISTAYMELSRLRSDDMAVYYCARMGDGAVFDFWGQGTLVTVSS
VL: AIQMTQSPSSLSASVGDRVTITCRASQRISSFLNWYQQKPGKAPKLLIYTASNLQNGVPSRFSGSGSGTDFTLTISSLQPEDFATYYCQQSYRTPLTFGGGTKVEIKR
As for B10, in assay [1], the “U937 Cytotoxicity Human T-cells [M] (EC50)” value was determined as 6.1e-11 M.

B11: H1H5798B (antibody, human IgG1, V domains shown)
VH: QVQLVQSGGGLVKPGGSLRLSCAASGFTFSSYDMSWVRQAPGKGLEWVSYISSSGNTIHYADSVKGRFTISRDNSKNSLYLQMNSLRAEDTAVYYCAKAGPATVTRRYYYYYGLDVWGQGTTVTVSS
VL: DIVMTQSPSSLSASVRDRVTITCRASQRISSYLNWFQQKPGKAPKVLIYTASSLQNGVPSRFSGSGSGTDFTLTISSLQPEDFATYYCQQSYRTPLTFGGGTKVEIKR
As to B11, the “U937 Cytotoxicity Human T-cells [M] (EC50)” value in assay [1] worked out at 1.81e-10 M.

B12: H1H5790B (antibody, human IgG1, V domains shown)
VH: EVQLVESGGGVVQPGRSLRLSCAASGFTFSYYGMHWVRQAPGKGLEWVAVISFDGKNKYYADSVMGRFTISRDNSKNTLYLQMNSLRAEDSAVFFCARSYDILTGYGAGYSYHYGMDVWGQGTTVTVSS
VL: AIQMTQSPSSLSASVGDRVTITCRASQRISSFLNWYQQKPGKAPKLLIYTASNLQNGVPSRFSGSGSGTDFTLTISSLQPEDFATYYCQQSYRTPLTFGGGTKVEIKR
In the case of B12, in assay [1], the “U937 Cytotoxicity Human T-cells [M] (EC50)” value came to 8.71e-11 M.

B13: H1H5801B (antibody, human IgG1, V domains shown)
VH: QVQLVQSGGGVVQPGGSLRLSCAASGFTFDDYAMHWVRQAPGKGLEWVSLISGDGGSTYYADSVKGRFTISRDNSKNSLYLQMNSLRTEDTALYYCAKDDSSSSWYYYYYGMDVWGRGTTVTVSS
VL: DIQMTQSPSSLSASVGDRVTITCRASQRISSYLNWYQQKPGKAPKVLISVASSLQSGVPSRFSGSGSGTDFTLTISSLQPEDFASYYCQQSYNTPLTFGGGTKVEIKR
Take B13: the “U937 Cytotoxicity Human T-cells [M] (EC50)” value in assay [1] worked out at 9.23e-11 M.

B14: H1H5795B (antibody, human IgG1, V domains shown)
VH: EVQLVESGAEVKKPGASVKVSCKTSGYSFIGYYIHWMRQAPGQGLEWMGWINPKSGVTNYAQRFQGRVTMTRDTSISTAYMELSRLKSDDTAVYFCARMGDGAVFDFWGQGTLVTVSS
VL: DIQLTQSPSSLSASVGDRVTITCRASQRISSFLNWYQQKPGKVPKLLIYTASNLQNGVPSRFSGTGSGTDFTLTISSLQPEDFATYYCQQSYRTPLTFGGGTKVDIKR
For the molecule B14, the “U937 Cytotoxicity Human T-cells [M] (EC50)” value in assay [1] was found to be 6.74e-11 M.

B15: H1H5792B (antibody, human IgG1, V domains shown)
VH: QVQLVESGGGVVQPGRSLRLSCAASGFTFSSYGMHWVRQAPGKGLEWVSTISFDGSNKYYADSVKGRFTISRDNSKNTLYLQMNSLRPEDTAVYYCAKGGGTSGSYFYYGMDVWGQGTTVTVSS
VL: AIQMTQSPSSLSASVGDRVTITCRASQRISSFLNWYQQKPGKAPKLLIYTASNLQNGVPSRFSGSGSGTDFTLTISSLQPEDFATYYCQQSYRTPLTFGGGTKLEIKR
In the case of B15, the “U937 Cytotoxicity Human T-cells [M] (EC50)” value in assay [1] came out at 1.4e-10 M.

B16: H1H5791B (antibody, human IgG1, V domains shown)
VH: QVQLVESGAEVKKPGASVKVSCKTSGYTLSGYYMHWMRQAPGQGLEWMGWINPKSGVTNYAQKFQDRVAMTRDTSISTAYMELSRLRSDDTAVYYCARMGDGAVFDFWAQGTLVTVSS
VL: DIQLTQSPSSLSASVGDRVTITCRASQRISSFLNWYQQKPGKAPKLLIYTASNLQNGVPSRFSGSGSGTDFTLTISSLQPEDFATYYCQQSYRTPLTFGGGTKLEIKR
Regarding B16, the “U937 Cytotoxicity Human T-cells [M] (EC50)” value in assay [1] is 8.01e-11 M.
